In the experiment the target is murine CD4 (murine) (UniProt P06332). As to the kind of experiment: quantitative flow cytometry on murine splenocytes, BD QuantiBrite PE microspheres as standard.
Sequence of UniProt P06332 (P06332 27-457): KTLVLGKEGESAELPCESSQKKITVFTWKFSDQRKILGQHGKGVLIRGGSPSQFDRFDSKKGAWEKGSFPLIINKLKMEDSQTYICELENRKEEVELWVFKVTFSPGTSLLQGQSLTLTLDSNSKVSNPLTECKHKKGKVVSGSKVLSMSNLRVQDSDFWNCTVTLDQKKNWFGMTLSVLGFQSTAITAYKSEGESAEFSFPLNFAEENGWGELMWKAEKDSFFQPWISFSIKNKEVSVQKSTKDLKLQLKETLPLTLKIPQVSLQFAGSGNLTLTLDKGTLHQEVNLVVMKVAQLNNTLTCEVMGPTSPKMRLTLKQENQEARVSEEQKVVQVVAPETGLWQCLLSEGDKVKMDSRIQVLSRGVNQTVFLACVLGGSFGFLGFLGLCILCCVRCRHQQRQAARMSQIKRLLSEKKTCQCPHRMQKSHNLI

Consider “Commercially prepared anti-CD4 (clone GK1.5, phycoerythrin conjugate) (antibody)”, for which the Antibody Binding per Cell (ABC) (CD4 antibody per cell) is 29700.

(Values after patent US20150344937A1.)
